From patent US20240150440A1 (LUMEN BIOSCIENCE, published 2024)
Several values for one entry are separate records, joined by “and”; a condition that tells them apart may be missing. Identical values can stand only once.

What was measured:
[1] = target: T1, SARS-CoV-2 Alpha Variant RBD (SARS-CoV-2 Alpha variant); experiment: ELISA, RBD coated
T1 construct: domain: RBD; coated on ELISA plates

[2] = target: T2, SARS-CoV-2 Beta Variant RBD (SARS-CoV-2 Beta variant); experiment: ELISA, RBD coated
T2 construct: domain: RBD; coated on ELISA plates

[3] = target: T3, SARS-CoV-2 Gamma Variant RBD (SARS-CoV-2 Gamma variant); experiment: ELISA, RBD coated
T3 construct: domain: RBD; coated on ELISA plates

[4] = target: T4, SARS-CoV-2 spike protein on pseudotyped lentivirus (Wuhan Reference Pseudovirus) (SARS-CoV-2, UniProt P0DTC2 14-1273); experiment: cell-based or functional assay
[5] = target: SARS-CoV-2 Gamma Variant spike protein on pseudotyped lentivirus (SARS-CoV-2 Gamma variant); experiment: cell-based or functional assay
[6] = target: T5, SARS-CoV-2 Delta Variant RBD (SARS-CoV-2 Delta variant); experiment: ELISA, RBD coated
T5 construct: domain: RBD; coated on ELISA plates

[7] = target: T4, SARS-CoV-2 spike protein on pseudotyped …; experiment: cell-based or functional assay; remark: listed apart in the source
[8] = target: T4, SARS-CoV-2 spike protein on pseudotyped …; experiment: cell-based or functional assay; remark: listed apart in the source

B1: PP1106 MBP-5HVZ-PAPA-RN-21-H6 (VHH)
VHH: QVQLVESGGGLVQPGGSLRLSCAASGLQTSDNAMHWFRQAPGKNRELVAGLTSGTSRNYGDSVKGRFTISRDNAKNTVYLQMNSLKPEDTAVYYCAAFPDVGDASSIGFVYWGQGTQVTVSS
notes: Form: Dimer
EC50 [1]: 2.05 nM
EC50 [2]: 3.17 nM
EC50 [3]: 7.84 nM
infectivity % under 10 ug/mL VHH treatment [4]: 76.6%
Pseudovirus neutralization IC50 [5]: 63.4 nM

B2: PP1154 MBP-5HVZ-PAPA-R5d-G1-H6 (VHH)
VHH: QVQLVESGGGLVQPGGSLRLSCAASGSIFGINDVHWFRQAPGKEREFVATITNGLSARYKDSVKGRFTISRDNAKNTVYLQMNSLKPEDTAVYYCAAQVYITTYELYDYWGQGTQVTVSS
notes: Form: Dimer
EC50 [1]: 2.37 nM
EC50 [2]: 24.7 nM
EC50 [3]: 15.8 nM
EC50 [6]: 221 nM
infectivity % under 10 ug/mL VHH treatment [4]: 53.2%
Pseudovirus neutralization IC50 [7]: 272 nM

B3: PP934 MBP-5HVZ-S3a-H2-H6 (VHH)
VHH: QVQLVESGGGLVQPGGSLRLSCAASGAAFSKNALHWFRQAPGKGREWVASITSGSGTQYMDSVKGRFTISRDNAKNTVYLQMNSLKPEDTAVYYCAALAYSGGYDYWGQGTQVTVSS
notes: Form: Dimer
EC50 [1]: 1.56 nM
EC50 [2]: 13.5 nM
EC50 [3]: 4.78 nM
Pseudovirus neutralization IC50 [5]: 46300 nM

B4: PP1105 MBP-5HVZ-PAPA-RN-20-H6 (VHH)
VHH: QVQLVESGGGLVQPGGSLRLSCAASGNYFEINKMHWFRQAPGKQREFVATIGSGGSTAYADSVKGRFTISRDNAKNTVYLQMNSLKPEDTAVYYCNALIYLADRRDGYYSYDYWGQGTQVTVSS
notes: Form: Dimer
EC50 [1]: 1.41 nM
EC50 [2]: 26.6 nM
EC50 [3]: 15.4 nM
EC50 [6]: 36.6 nM
infectivity % under 10 ug/mL VHH treatment [4]: 79.8%

B5: PP1104 MBP-5HVZ-PAPA-RN-19-H6 (VHH)
VHH: QVQLVESGGGLVQPGGSLRLSCAASGIDDSIGAMHWFRQAPGKGREFVAALSGTGTTSYADSVKGRFTISRDNAKNTVYLQMNSLKPEDTAVYYCAAAFPAGGDYWGQGTQVTVSS
notes: Form: Dimer
EC50 [1]: 1.09 nM
EC50 [2]: 44.9 nM
EC50 [3]: 29.5 nM
EC50 [6]: 295 nM
infectivity % under 10 ug/mL VHH treatment [4]: 73.8%

B6: PP1153 MBP-5HVZ-PAPA-R5d-D4-H6 (VHH)
VHH: QVQLVESGGGLVQPGGSLRLSCAASGSDFTINAMHWFRQAPGKQREFVATITSTSSTAYRDSVKGRFTISRDNAKNTVYLQMNSLKPEDTAVYYCAAFAVRDADTAGWTARDYWGQGTQVTVSS
notes: Form: Dimer
EC50 [1]: 0.91 nM
EC50 [6]: 223 nM
infectivity % under 10 ug/mL VHH treatment [4]: 81.7%
Pseudovirus neutralization IC50 [5]: 62.9 nM

B7: PP908 MBP-5HVZ-S2a-C4-H6 (VHH)
VHH: QVQLVESGGGLVQPGGSLRLSCAASGFSESINATAWFRQAPGKQREGVAGLDGGGSDYYSDSVKGRFTISRDNAKNTVYLQMNSLKPEDTAVYYCAAQLTSSFRGYDFTPSNYDYWGQGTQVTVSS
notes: Form: Dimer
EC50 [1]: 1.74 nM
EC50 [2]: 7.42 nM
EC50 [3]: 3.75 nM
EC50 [6]: 2.15 nM
infectivity % under 10 ug/mL VHH treatment [4]: 47.5%
Pseudovirus neutralization IC50 [7]: 1620 nM
Pseudovirus neutralization IC50 [5]: 63.1 nM

B8: PP1102 MBP-5HVZ-PAPA-RN-17-H6 (VHH)
VHH: QVQLVESGGGLVQPGGSLRLSCAASGSMYSRAVMHWFRQAPGKEREGVASIGRTGDSYYADSVKGRFTISRDNAKNTVYLQMNSLKPEDTAVYYCAADNLDVVYGNRYWGQGTQVTVSS
notes: Form: Dimer
EC50 [1]: 1.55 nM
EC50 [2]: 2 nM
EC50 [3]: 1.26 nM
infectivity % under 10 ug/mL VHH treatment [4]: 40.9%
Pseudovirus neutralization IC50 [7]: ~5110 nM
Pseudovirus neutralization IC50 [5]: 21.5 nM

B9: PP1144 MBP-5HVZ-PAPA-R2c-F6-H6 (VHH)
VHH: QVQLVESGGGLVQPGGSLRLSCAASGRILAANIVHWYRQAPGKEREGVAGITTGGSNYYSDSVKGRFTISRDNAKNTVYLQMNSLKPEDTAVYYCNALGLGSASGSYESWGQGTQVTVSS
notes: Form: Dimer
infectivity % under 10 ug/mL VHH treatment [4]: 9.18%
Pseudovirus neutralization IC50 [7]: 11.9 nM
Pseudovirus inhibition IC50 [Cont. 1] [8]: 2.75 nM

B10: PP1156 MPB-scTRP-PAPA-R2c-F6-H6 (VHH)
VHH: QVQLVESGGGLVQPGGSLRLSCAASGRILAANIVHWYRQAPGKEREGVAGITTGGSNYYSDSVKGRFTISRDNAKNTVYLQMNSLKPEDTAVYYCNALGLGSASGSYESWGQGTQVTVSS
notes: Form: Trimer
infectivity % under 10 ug/mL VHH treatment [4]: 18.1%
Pseudovirus neutralization IC50 [7]: 36.8 nM
Pseudovirus inhibition IC50 [Cont. 1] [8]: 63.8 nM

B11: PP1132 MBP-4B0F-PAPA-R2c-F6-H6 (VHH)
VHH: QVQLVESGGGLVQPGGSLRLSCAASGRILAANIVHWYRQAPGKEREGVAGITTGGSNYYSDSVKGRFTISRDNAKNTVYLQMNSLKPEDTAVYYCNALGLGSASGSYESWGQGTQVTVSS
notes: Form: Heptamer
infectivity % under 10 ug/mL VHH treatment [4]: 2.65%
Pseudovirus neutralization IC50 [7]: 4.14 nM
Pseudovirus inhibition IC50 [Cont. 1] [8]: 5.66 nM

B12: PP1134 MBP-4B0F-PAPA-R2d-D3-H6 (VHH)
VHH: QVQLVESGGGLVQPGGSLRLSCAASGHIFSINNAAWVRQAPGKSREGVATIHSGGGTYYSDSVKGRFTISRDNAKNTVYLQMNSLKPEDTAVYYCNAEVSTGAGSRGRVSDVYWGQGTQVTVSS
notes: Form: Heptamer
infectivity % under 10 ug/mL VHH treatment [4]: 10.9%
Pseudovirus neutralization IC50 [7]: 3.97 nM
Pseudovirus inhibition IC50 [Cont. 1] [8]: 5.99 nM

B13: PP1158 MPB-scTRP-PAPA-R2d-D3-H6 (VHH)
VHH: QVQLVESGGGLVQPGGSLRLSCAASGHIFSINNAAWVRQAPGKSREGVATIHSGGGTYYSDSVKGRFTISRDNAKNTVYLQMNSLKPEDTAVYYCNAEVSTGAGSRGRVSDVYWGQGTQVTVSS
notes: Form: Trimer
infectivity % under 10 ug/mL VHH treatment [4]: 28.8%
Pseudovirus neutralization IC50 [7]: 27.4 nM
Pseudovirus inhibition IC50 [Cont. 1] [8]: 123 nM

B14: PP1181 R2d-D3-PP7-H6 (VHH)
VHH: QVQLVESGGGLVQPGGSLRLSCAASGHIFSINNAAWVRQAPGKSREGVATIHSGGGTYYSDSVKGRFTISRDNAKNTVYLQMNSLKPEDTAVYYCNAEVSTGAGSRGRVSDVYWGQGTQVTVSS
infectivity % under 10 ug/mL VHH treatment [4]: 1.57%
Pseudovirus neutralization IC50 [7]: 6.95 nM
Pseudovirus inhibition IC50 [Cont. 1] [8]: 5.61 nM

B15: PP1101 MBP-5HVZ-PAPA-RN-16-H6 (VHH)
VHH: QVQLVESGGGLVQPGGSLRLSCAASGADFSSNAMHWFRQAPGKAREFVASIDSDKSGYYADSVKGRFTISRDNAKNTVYLQMNSLKPEDTAVYYCNAYSGTDNYGYDYWGQGTQVTVSS
notes: Form: Dimer
EC50 [1]: 1.77 nM
EC50 [2]: 115 nM
EC50 [3]: 51.5 nM
EC50 [6]: 42.6 nM
infectivity % under 10 ug/mL VHH treatment [4]: 91.8%

B16: PP1145 MBP-5HVZ-PAPA-R2d-A6-H6 (VHH)
VHH: QVQLVESGGGLVQPGGSLRLSCAASGSGASIGAMHWFRQAPGKGREWVASITSAGNTYYGDSVKGRFTISRDNAKNTVYLQMNSLKPEDTAVYYCNALAGANYESQWEEYNYWGQGTQVTVSS
notes: Form: Dimer
EC50 [1]: 1.94 nM
EC50 [2]: 30.9 nM
EC50 [3]: 5.49 nM
EC50 [6]: 89 nM
infectivity % under 10 ug/mL VHH treatment [4]: 65.2%
Pseudovirus neutralization IC50 [7]: 146 nM

B17: PP1157 MPB-scTRP-PAPA-R2d-A6-H6 (VHH)
VHH: QVQLVESGGGLVQPGGSLRLSCAASGSGASIGAMHWFRQAPGKGREWVASITSAGNTYYGDSVKGRFTISRDNAKNTVYLQMNSLKPEDTAVYYCNALAGANYESQWEEYNYWGQGTQVTVSS
notes: Form: Trimer
infectivity % under 10 ug/mL VHH treatment [4]: 32.9%
Pseudovirus neutralization IC50 [7]: 18.9 nM and 19.8 nM
Pseudovirus inhibition IC50 [Cont. 1] [8]: 54.4 nM

B18: PP1133 MBP-4B0F-PAPA-R2d-A6-H6 (VHH)
VHH: QVQLVESGGGLVQPGGSLRLSCAASGSGASIGAMHWFRQAPGKGREWVASITSAGNTYYGDSVKGRFTISRDNAKNTVYLQMNSLKPEDTAVYYCNALAGANYESQWEEYNYWGQGTQVTVSS
notes: Form: Heptamer
infectivity % under 10 ug/mL VHH treatment [4]: 48.1%
Pseudovirus neutralization IC50 [7]: 186 nM
Pseudovirus inhibition IC50 [Cont. 1] [8]: 180 nM
